Reference: US20070032419A1 (ONCOSCIENCE, published 2007)

T1: tTF-GNGRAHA fusion polypeptide with N-terminal affinity tag
T1 chain: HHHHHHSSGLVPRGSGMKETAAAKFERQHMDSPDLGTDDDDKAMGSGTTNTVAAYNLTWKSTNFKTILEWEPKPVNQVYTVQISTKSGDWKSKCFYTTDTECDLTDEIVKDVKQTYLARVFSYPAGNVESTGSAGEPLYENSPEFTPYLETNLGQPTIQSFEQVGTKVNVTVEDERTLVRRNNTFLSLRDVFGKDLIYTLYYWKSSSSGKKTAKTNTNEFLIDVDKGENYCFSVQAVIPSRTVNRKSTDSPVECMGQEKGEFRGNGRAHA

T2: tTF-GCVLNGRMEC fusion polypeptide
T2 chain: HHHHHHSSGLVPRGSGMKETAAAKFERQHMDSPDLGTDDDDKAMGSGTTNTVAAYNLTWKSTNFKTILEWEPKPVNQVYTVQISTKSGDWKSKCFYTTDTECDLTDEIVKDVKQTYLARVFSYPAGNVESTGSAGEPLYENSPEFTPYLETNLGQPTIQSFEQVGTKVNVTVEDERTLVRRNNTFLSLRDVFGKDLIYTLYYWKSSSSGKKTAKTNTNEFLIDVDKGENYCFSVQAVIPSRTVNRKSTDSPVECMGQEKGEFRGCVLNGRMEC

T3: tTF-GCNGRCG fusion polypeptide
T3 chain: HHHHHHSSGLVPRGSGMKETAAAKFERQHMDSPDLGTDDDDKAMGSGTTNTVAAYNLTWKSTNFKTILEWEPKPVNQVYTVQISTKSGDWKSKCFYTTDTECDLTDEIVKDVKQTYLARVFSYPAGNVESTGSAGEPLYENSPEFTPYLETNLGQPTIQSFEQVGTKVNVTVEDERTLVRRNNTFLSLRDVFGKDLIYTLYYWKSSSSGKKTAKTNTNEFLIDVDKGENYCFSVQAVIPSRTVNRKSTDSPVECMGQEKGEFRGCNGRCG

T4: tTF-GCNGRCVSGCAGRC fusion polypeptide
T4 chain: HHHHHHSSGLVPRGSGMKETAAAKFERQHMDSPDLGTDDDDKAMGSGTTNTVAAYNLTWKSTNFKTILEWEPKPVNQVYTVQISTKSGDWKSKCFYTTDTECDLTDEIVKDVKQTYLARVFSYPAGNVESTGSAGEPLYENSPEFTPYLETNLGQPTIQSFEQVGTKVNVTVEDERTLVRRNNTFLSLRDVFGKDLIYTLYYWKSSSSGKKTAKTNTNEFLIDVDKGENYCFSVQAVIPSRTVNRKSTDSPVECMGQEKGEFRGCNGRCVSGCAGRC

T5: truncated human tissue factor tTF1-218
T5 chain: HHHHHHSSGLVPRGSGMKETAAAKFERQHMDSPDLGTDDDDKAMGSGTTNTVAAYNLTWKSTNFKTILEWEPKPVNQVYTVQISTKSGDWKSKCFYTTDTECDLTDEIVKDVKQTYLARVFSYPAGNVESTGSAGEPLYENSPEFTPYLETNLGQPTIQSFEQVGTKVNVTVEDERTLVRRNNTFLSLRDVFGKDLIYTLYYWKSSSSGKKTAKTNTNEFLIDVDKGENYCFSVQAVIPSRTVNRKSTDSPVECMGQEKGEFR

T6: tTF-GRGDSP fusion polypeptide with N-terminal affinity tag
T6 chain: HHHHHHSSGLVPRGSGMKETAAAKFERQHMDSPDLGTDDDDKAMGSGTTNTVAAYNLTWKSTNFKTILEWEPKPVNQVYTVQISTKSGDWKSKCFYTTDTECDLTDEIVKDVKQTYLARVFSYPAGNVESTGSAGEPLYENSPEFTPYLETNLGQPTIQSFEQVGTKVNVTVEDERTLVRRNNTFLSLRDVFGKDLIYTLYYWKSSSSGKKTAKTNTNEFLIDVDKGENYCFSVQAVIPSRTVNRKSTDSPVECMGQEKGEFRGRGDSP

T7: tTF-GALNGRSHAG fusion polypeptide
T7 chain: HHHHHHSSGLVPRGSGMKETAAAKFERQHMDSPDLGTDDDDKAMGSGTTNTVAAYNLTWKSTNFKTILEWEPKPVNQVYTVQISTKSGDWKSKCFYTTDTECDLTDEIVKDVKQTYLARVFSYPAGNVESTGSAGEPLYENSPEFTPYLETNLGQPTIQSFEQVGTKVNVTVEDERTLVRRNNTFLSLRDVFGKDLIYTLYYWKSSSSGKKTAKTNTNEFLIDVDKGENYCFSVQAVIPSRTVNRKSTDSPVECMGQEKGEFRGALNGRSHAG

B1: recombinant factor VIIa (Novo-Nordisk) (protein)
chain: ANAFLEELRPGSLERECKEEQCSFEEAREIFKDAERTKLFWISYSDGDQCASSPCQNGGSCKDQLQSYICFCLPAFEGRNCETHKDDQLICVNENGGCEQYCSDHTGTKRSCRCHEGYSLLADGVSCTPTVEYPCGKIPILEKRNASKPQGRIVGGKVCPKGECPWQVLLLVNGAQLCGGTLINTIWVVSAAHCFDKIKNWRNLIAVLGEHDLSEHDGDEQSRRVAQVIIPSTYVPGTTNHDIALLRLHQPVVLTDHVVPLCLPERTFSERTLAFVRFSLVSGWGQLLDRGATALELMVLNVPRLMTQDCLQQSRKVGDSPNITEYMFCAGYSDGSKDSCKGDSGGPHATHYRGTWYLTGIVSWGQGCATVGHFGVYTRVSQYIEWLQKLMRSEPRPGVLLRAPFP
B2: tTF-GRGDSP fusion polypeptide with N-terminal affinity tag (other)
chain: HHHHHHSSGLVPRGSGMKETAAAKFERQHMDSPDLGTDDDDKAMGSGTTNTVAAYNLTWKSTNFKTILEWEPKPVNQVYTVQISTKSGDWKSKCFYTTDTECDLTDEIVKDVKQTYLARVFSYPAGNVESTGSAGEPLYENSPEFTPYLETNLGQPTIQSFEQVGTKVNVTVEDERTLVRRNNTFLSLRDVFGKDLIYTLYYWKSSSSGKKTAKTNTNEFLIDVDKGENYCFSVQAVIPSRTVNRKSTDSPVECMGQEKGEFRGRGDSP
notes: It was biotinylated for the FACS assay; also called tTF-RGD

What was measured:
[1] = molecular target: T1, tTF-GNGRAHA fusion polypeptide with …
[2] = molecular target: T2, tTF-GCVLNGRMEC fusion polypeptide
[3] = molecular target: T3, tTF-GCNGRCG fusion polypeptide
[4] = molecular target: T4, tTF-GCNGRCVSGCAGRC fusion polypeptide
[5] = molecular target: T5, truncated human tissue factor tTF1-218
[6] = molecular target: T6, tTF-GRGDSP fusion polypeptide with …
[7] = molecular target: T7, tTF-GALNGRSHAG fusion polypeptide
[8] = molecular target: the fusion polypeptides (tTF fusion polypeptides)
[9] = molecular target: T8, integrin αvβ3 on cultivated human endothelial cells (human, UniProt P06756 31-1048; P05106 27-788); test: FACS, biotinylated protein (0.1 µM) on human endothelial cells in suspension, streptavidin-phycoerythrin detection; reference tTF
T8 construct: whole, on cells; The cells express αvβ3 naturally; also called αvβ3 on endothelial cells
T8 sequence (P06756 31-1048, chain 1 of 2): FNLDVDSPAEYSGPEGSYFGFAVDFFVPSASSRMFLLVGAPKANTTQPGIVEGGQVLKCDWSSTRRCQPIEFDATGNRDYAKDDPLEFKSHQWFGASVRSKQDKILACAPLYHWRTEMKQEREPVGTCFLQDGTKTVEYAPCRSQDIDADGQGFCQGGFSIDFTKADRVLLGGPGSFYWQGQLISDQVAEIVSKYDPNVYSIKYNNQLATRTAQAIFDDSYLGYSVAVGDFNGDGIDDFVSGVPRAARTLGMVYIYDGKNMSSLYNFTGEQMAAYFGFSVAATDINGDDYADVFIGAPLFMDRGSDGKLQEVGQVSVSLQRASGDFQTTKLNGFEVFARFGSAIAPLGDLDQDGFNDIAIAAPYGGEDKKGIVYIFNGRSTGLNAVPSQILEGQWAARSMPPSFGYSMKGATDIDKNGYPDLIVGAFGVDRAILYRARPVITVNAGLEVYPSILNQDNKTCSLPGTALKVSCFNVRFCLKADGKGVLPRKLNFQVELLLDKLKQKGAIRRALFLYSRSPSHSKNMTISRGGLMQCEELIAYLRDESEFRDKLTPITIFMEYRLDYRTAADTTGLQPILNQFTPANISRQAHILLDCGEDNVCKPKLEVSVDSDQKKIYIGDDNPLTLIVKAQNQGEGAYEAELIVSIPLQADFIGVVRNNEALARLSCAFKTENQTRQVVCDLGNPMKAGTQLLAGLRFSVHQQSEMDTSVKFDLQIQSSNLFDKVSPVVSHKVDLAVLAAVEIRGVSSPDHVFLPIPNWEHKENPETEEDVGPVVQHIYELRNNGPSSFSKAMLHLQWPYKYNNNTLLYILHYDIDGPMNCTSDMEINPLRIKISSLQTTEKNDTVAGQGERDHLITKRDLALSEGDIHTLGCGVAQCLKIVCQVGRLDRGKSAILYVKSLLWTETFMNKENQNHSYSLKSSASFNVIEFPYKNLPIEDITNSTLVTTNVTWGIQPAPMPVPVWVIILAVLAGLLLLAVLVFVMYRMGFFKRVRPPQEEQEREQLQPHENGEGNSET
T8 sequence (P05106 27-788, chain 2 of 2): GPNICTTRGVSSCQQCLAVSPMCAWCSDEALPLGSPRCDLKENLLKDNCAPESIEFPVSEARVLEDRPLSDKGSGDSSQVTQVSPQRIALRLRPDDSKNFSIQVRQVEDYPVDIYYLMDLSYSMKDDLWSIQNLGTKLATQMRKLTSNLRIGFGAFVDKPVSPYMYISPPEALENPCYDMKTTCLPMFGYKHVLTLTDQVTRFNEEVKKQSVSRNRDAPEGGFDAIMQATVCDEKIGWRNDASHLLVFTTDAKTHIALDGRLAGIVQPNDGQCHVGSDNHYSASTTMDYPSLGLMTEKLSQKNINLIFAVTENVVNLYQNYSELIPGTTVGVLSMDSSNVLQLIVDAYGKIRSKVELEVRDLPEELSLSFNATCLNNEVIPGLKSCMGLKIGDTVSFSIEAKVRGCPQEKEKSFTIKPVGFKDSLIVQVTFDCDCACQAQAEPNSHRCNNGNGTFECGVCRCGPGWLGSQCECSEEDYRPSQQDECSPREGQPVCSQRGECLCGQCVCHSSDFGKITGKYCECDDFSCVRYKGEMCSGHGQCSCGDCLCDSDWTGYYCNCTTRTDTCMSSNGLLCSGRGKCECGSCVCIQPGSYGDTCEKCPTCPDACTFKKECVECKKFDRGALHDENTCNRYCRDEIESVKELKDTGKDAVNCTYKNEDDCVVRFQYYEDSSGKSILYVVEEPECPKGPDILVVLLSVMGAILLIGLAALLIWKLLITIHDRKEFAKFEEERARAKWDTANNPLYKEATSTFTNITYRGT

| Binder | proteolytic activation of FX via FVIIa in the presence of phospholipids (chromogenic FXa assay) [1] | proteolytic activation of FX via FVIIa in the presence of phospholipids (chromogenic FXa assay) [2] | proteolytic activation of FX via FVIIa in the presence of phospholipids (chromogenic FXa assay) [3] | proteolytic activation of FX via FVIIa in the presence of phospholipids (chromogenic FXa assay) [4] | proteolytic activation of FX via FVIIa in the presence of phospholipids (chromogenic FXa assay) [5] | proteolytic activation of FX via FVIIa in the presence of phospholipids (chromogenic FXa assay) [6] | proteolytic activation of FX via FVIIa in the presence of phospholipids (chromogenic FXa assay) [7] | Michaelis constant (Km) for activation of FX by FVIIa/tTF fusion protein [8] | fluorescence intensity, fold over tTF [9] [fold] |
| --- | --- | --- | --- | --- | --- | --- | --- | --- | --- |
| B1 | both tTF and the tTF fusion polypeptides are functionally active under these conditions | both tTF and the tTF fusion polypeptides are functionally active under these conditions | both tTF and the tTF fusion polypeptides are functionally active under these conditions | both tTF and the tTF fusion polypeptides are functionally active under these conditions | both tTF and the tTF fusion polypeptides are functionally active under these conditions | both tTF and the tTF fusion polypeptides are functionally active under these conditions | both tTF and the tTF fusion polypeptides are functionally active under these conditions | in the range 0.12-1.2 nM |  |
| B2 |  |  |  |  |  |  |  |  | 8 |
